Measured values taken from US8624002B2, “Prostaglandin E2 binding proteins and uses thereof” (AbbVie, Inc., priority 2008, dated 2014).

Test: ^3H-PGE2 competition ELISA (prostaglandin selectivity)
Type: binding
Method: Alternatively, prostaglandin selectivity was determined using a ^3H-PGE2 competition ELISA. Plates were coated with 50 μL/well of 5 μg/ml of goat anti-human IgG (Fc) (Thermo Scientific # 31170, Hudson, N.H.) or goat anti-mouse IgG (Fc) (Thermo Scientific # 31125, Hudson, N.H.) in PBS and incubated overnight at 4° C. The following day plates were flicked and blotted dry. Plates were blocked with 200 μL/well of Superblock (Thermo Scientific # 37515, Hudson, N.H.), 1 hour at room temperature. Plates were flicked and blotted dry. Monoclonal antibodies were diluted to 0.04 μg/ml in PBST (Abbott Bioresearch Center, Worcester, Mass.)/10% Superblock and 50 μL of each was added to each well (2 ng/well) of the pre-blocked ELISA plate and incubated for 1 hour at room temperature. Wells were washed 3 times with PBS/0.1% Tween-20. ^3H-PGE2 (Perkin Elmer # NET-428, Waltham, Mass.) was diluted in PBST/10% Superblock to 6 nM (2× stock). Each prostaglandin (Cayman Chemicals, Ann Arbor, Mich.) was prepared in PBST+10% Superblock at various concentrations ranging from 2000 μM (2× stock) to 0.00004 μM (2×). Equal volumes of the ^3H-PGE2 solution and of each prostaglandin dilution were mixed. Fifty microliters of this mixture was then added to each well of the plate and incubated for 1 hour at room temperature. Wells were washed manually 6 times with PBST/10% Superblock and 50 μL of scintillation fluid (Perkin Elmer # 6013621, Waltham, Mass.) added to each well. Plates were read using a TopCount reader (Perkin Elmer, Waltham, Mass.) with a 5 minute count delay. IC50 number was determined using GraphPad Prism 5 (GraphPad Software, La Jolla, Calif.). The cross reactivity index was then calculated by IC50 of PGE2/IC50 of other prostaglandin(s)

B1: 2B5-8.0: recombinant anti-PGE2 antibody from solved 2B5 sequence; VH SEQ ID NO 42, VL SEQ ID NO 43 (antibody, V domains shown)
VH: QVQLQQSGPELVRPGSSVKISCKASGYTFTKYWLGWVKQRPGHGLEWIGDIYPGYDYTHYNEKFKDKATLTVDTSSSTAYMQLSSLTSEDSAIYYCARSDGSSTYWGQGTLVTVSA
VL: DVLMTQTPLSLPVSLGDQASISCTSSQNIVHSNGNTYLEWYLQRPGQSPKLLIYKVSNRFSGVPDRFSGSGSGTVFTLKISRVEAEDLGVYYCFQVSHVPYTFGGGTKLEIKR
PG Selectivity in ^3H-PGE2 competition ELISA (CRI %) 2,3-dinor-6-keto-PGF1α (2,3-dinor-6-keto-PGF1α): 0.019%
PG Selectivity in ^3H-PGE2 competition ELISA (CRI %) 5(S)-HETE (5(S)-HETE): <0.01%
PG Selectivity in ^3H-PGE2 competition ELISA (CRI %) 6-keto PGF1α (6-keto PGF1α): 0.64%
PG Selectivity in ^3H-PGE2 competition ELISA (CRI %) 8-iso PGF2α (8-iso PGF2α): 0.092%
PG Selectivity in ^3H-PGE2 competition ELISA (CRI %) 13,14-dihydroxyl-15-keto PGE2 (13,14-dihydroxyl-15-keto PGE2): 0.012%
PG Selectivity in ^3H-PGE2 competition ELISA (CRI %) 15-keto PGE2 (15-keto PGE2): 0.013%
PG Selectivity in ^3H-PGE2 competition ELISA (CRI %) 15R-Pinane TXA2 (15R-Pinane TXA2): 0.00043%
PG Selectivity in ^3H-PGE2 competition ELISA (CRI %) 19R-hydroxy PGE2 (19R-hydroxy PGE2): 0.09%
PG Selectivity in ^3H-PGE2 competition ELISA (CRI %) Arachidonic acid (Arachidonic acid): <0.01%
PG Selectivity in ^3H-PGE2 competition ELISA (CRI %) Carbaprostacyclin (Carbaprostacyclin): 0.18%
PG Selectivity in ^3H-PGE2 competition ELISA (CRI %) Carbocyclic TXA2 (Carbocyclic TXA2): 0.0005%
PG Selectivity in ^3H-PGE2 competition ELISA (CRI %) Iloprost (Iloprost): 0.01%
PG Selectivity in ^3H-PGE2 competition ELISA (CRI %) LTE4 (LTE4): 0.012%
PG Selectivity in ^3H-PGE2 competition ELISA (CRI %) PGA2 (PGA2): 0.04%
PG Selectivity in ^3H-PGE2 competition ELISA (CRI %) PGB2 (PGB2): 0.00038%
PG Selectivity in ^3H-PGE2 competition ELISA (CRI %) PGD2 (PGD2): <1 × 10^−4%
PG Selectivity in ^3H-PGE2 competition ELISA (CRI %) PGE1 (PGE1): 3.6%
PG Selectivity in ^3H-PGE2 competition ELISA (CRI %) PGE2 (PGE2): 100%
PG Selectivity in ^3H-PGE2 competition ELISA (CRI %) PGF2α (PGF2α): 0.05%
PG Selectivity in ^3H-PGE2 competition ELISA (CRI %) PGI2 (PGI2): 0.16%
PG Selectivity in ^3H-PGE2 competition ELISA (CRI %) Pinane TXA2 (Pinane TXA2): 0.00033%
PG Selectivity in ^3H-PGE2 competition ELISA (CRI %) TXB2 (TXB2): <0.01%
